The values below come from patent US20240285784A1, “PEPTIDIC CONJUGATES OF SN38 USEFUL IN THE TREATMENT OF CANCER” (FUNDACIÓ INSTITUT DE RECERCA BIOMÈDICA (IRB BARCELONA), priority 2020, published 2024).

SMILES strings stand for the structures. Values after ≈ are worked out from the molar mass of the structure shown. Read-outs that look alike come from different tables or passages of the source. *1 amine or outer side, *2 acyl side, *3 side chain or, on linkers, in order; H or OH if unused. Where a SMILES comes first, the peptide text is derived from it. Bridges are numbered along the chain shown (N, C = ends). [ ]: non-standard residue; d: D form. The star is where a group is joined. X1 = CCc1c2c(nc3ccc(O)cc13)-c1cc3c(c(=O)n1C2)COC(=O)[C@@]3(CC)OC(=O)CCCCn1cc(CCCC(=O)NCCCOCCOCCOCCCN*)nn1; Suc = O=C(CCC(=O)[*:2])[*:1]; Dap = NC[C@H](N)C(=O)O

The subject of series [1] is retinoblastoma cell model HSJD-RBT-5. Put plainly: MTS cell viability assay, retinoblastoma model HSJD-RBT-5. The class given is cell-based. The following applies: 72 h incubation, Example 9, Table 3, read-out: IC50 values against cancer cell lines. The source says: (§1) Cancer cell lines were obtained from the repository maintained at Hospital Sant Joan de Deu (Barcelona, Spain). Cancer cell lines used in these experiment included cancer types of adult glioma (U373 and U87 cell lines), pediatric gliomas including diffuse intrinsic pontine glioma (HSJD-DIPG-007, HSJD-DIPG-011), and pediatric high-grade glioma (HSJD-GBM-001), retinoblastoma (HSJD-RBT-5, HSJD-RBT-7 and HSJD-RBT-14), Ewing sarcoma (A673), rhabdomyosarcoma (Rd and RH4) and neuroblastoma (LAN-1 and SK-N-JD cell lines and HSJD-NB-004, HSJD-NB-005 and HSJD-NB-016 patient-derived cell models). […] To add the drugs to the cells in culture, SN38-linker A-MiniAp4 (Ia) and irinotecan were prepared in culture medium from stock solutions at concentration 1 mg/mL in water. SN38 was prepared in culture medium from a stock solution at concentration 1 mg/mL in DMSO. […] Activity curves were built for adult glioma cell lines U87 (FIG. 1) and U373 (FIG. 2), pediatric gliomas including DIPG models HSJD-DIPG-007 (FIG. 3) and HSJD-DIPG-011 (FIG. 4), and pediatric high-grade glioma model HSJD-GBM-001 (FIG. 5), retinoblastoma models HSJD-RBT-5 (FIG. 6), HSJD-RBT-7 (FIG. 7) and HSJD-RBT-14 (FIG. 8), Ewing sarcoma cell line A673 (FIG. 9), rhabdomyosarcoma cell lines Rd (FIG. 10) and RH4 (FIG. 11), neuroblastoma cell lines LAN-1 (FIG. 12) and SK-N-JD (FIG. 13) and neuroblastoma patient-derived cell models HSJD-NB-004 (FIG. 14), HSJD-NB-005 (FIG. 15) and HSJD-NB-016 (FIG. 16). The established IC50 values are in Table 3.
Background: Tetrazolium dyes change colour on reduction, which living cells bring about.

For series [2], the system named is retinoblastoma cell model HSJD-RBT-14. Put plainly: MTS cell viability assay, retinoblastoma model HSJD-RBT-14. The series is classed as cell-based. The following applies: 72 h incubation, Example 9, Table 3, read-out: IC50 values against cancer cell lines.
Text: as §1

The test system of series [3] is athymic nude mice. Put plainly: Maximum tolerated dose, single intravenous injection. The series is classed as in vivo. Particulars: 200 mg/kg single i.v., following 14 days, compared to untreated control animals. The method, then:
(§2) To evaluate the toxicity of irinotecan and SN38-linker A-MiniAp4 (Ia) (also named G2B-001) in athymic nude mice (10 week old; 8 mice per group) first the maximum tolerated dose (MTD) of SN38-linker A-MiniAp4 (Ia) was studied, by intravenous injection. Three mice were injected at dose levels 200, 500 and 1000 mg/kg, and observed for symptoms including death or weight lost during the following 14 days. The MTD was established at 200 mg/kg.

Assay in series [4]: as above
The following applies: mouse, in vivo; single intravenous injection, athymic nude mice, observed 14 days. The class given is in vivo, mice. The method, then:
as §2

Series [5] is described as follows: Stability in dog plasma at 37° C. in vitro. The series is classed as in vitro ADME. The method, then: (§3) To assess the stability of the SN38-linker A-MiniAp4 (Ia) (example 7) in human, mouse, dog and rat plasma at 37° C., the compound was prepared at 200 μM in plasma samples in triplicates at each timepoint (0 h, 1 h, 4 h, 8 h and 24 h) for each species. Once the incubation was finalised, plasma proteins were immediately precipitated by adding chilly methanol (ratio 4:1, methanol:plasma) and tubes were shacked for few seconds (vortex). Samples were centrifuged at 3,000 rpm for 30 minutes at 4° C., supernatants were collected, transferred to the injection plate and injected to LC-MS system.
(§4) Compound recovery was determined by comparing the analyte response in a biological sample that is spiked with the analyte and processed, with the response in a methanol sample that is spiked with the analyte and processed.
(§5) Plasma stability assay was performed using blank plasma from untreated volunteers/animals. K2-EDTA was used as anticoagulant. Human blank plasma used was obtained from Hospital Sant Pau, mouse blank plasma used was obtained from Janvier, dog blank plasma used was obtained from Isoquimen and rat blank plasma used were obtained from Draconis Pharma.

Series [6] is described as follows: Evaluation of solubility in water. The series is classed as physicochemical. The method, then: 25 mg of SN38-linker A-MiniAp4 were dissolved in H2O, showing a completely transparent solution. This means that SN38-linker A-MiniAp4 has a solubility in water higher than 5 mg/mL, more than 400-fold the solubility in water described for SN38 (Mol. Pharmaceutics, 2016, 13, 379-390).

The nature of series [7]: Stability in human plasma at 37° C. in vitro. The series is classed as in vitro ADME. Here is the method:
as §3, §4, §5
To assess the stability of the G2B-001 lineal (Ib) (example 16) in human plasma at 37° C., the compound was prepared at 200 µM in plasma samples in triplicates at each timepoint (0 h, 0.5 h, 1 h, 2 h, 4 h, 8 h and 24 h). Once the incubation was finalised, plasma proteins were immediately precipitated by adding chilly methanol (ratio 4:1, methanol:plasma) and tubes were shacked for few seconds (vortex). Samples were centrifuged at 3,000 rpm for 30 minutes at 4° C., supernatants were collected, transferred to the injection plate and injected to LC-MS system. Compound recovery was determined by comparing the analyte response in a biological sample that is spiked with the analyte and processed, with the response in a methanol sample that is spiked with the analyte and processed.
Plasma stability assay was performed using blank plasma from untreated volunteers. K2-EDTA was used as anticoagulant. Human blank plasma used was obtained from Hospital Sant Pau.

For series [8], the system named is rhabdomyosarcoma cell line Rd. As to the kind of experiment: MTS cell viability assay, rhabdomyosarcoma cell line Rd. The class given is cell-based. The following applies: 72 h incubation, Example 9, Table 3, read-out: IC50 values against cancer cell lines.
Text: as §1

Series [9] relates to adult glioma cell line U87. Put plainly: MTS cell viability assay, adult glioma cell line U87. The class given is cell-based. Particulars: 72 h incubation, Example 9, Table 3, read-out: IC50 values against cancer cell lines.
Text: as §1

A short description of series [10]: Stability in rat plasma at 37° C. in vitro. The class given is in vitro ADME. The method, then: as §3, §4, §5
Series [11] is described as follows: Turbidimetric aqueous solubility. The class given is physicochemical. The following applies: for solubility at 2 hr: kinetic from dmso stock, 0.01 M phosphate buffered saline pH 7.4, 1% DMSO, 2 hr at 37° C., absorbance 620 nm. The method, then:
Each test compound concentration was then further diluted 1 in 100 in buffer (0.01 M phosphate buffered saline pH 7.4) so that the final DMSO concentration was 1% and the final test compound concentrations were 1, 3, 10, 30 and 100 μM. The experiment was performed at 37° C. and each concentration was incubated in 7 replicate wells. The plates were incubated for 2 hr at 37° C. before the absorbance was measured at 620 nm.

For the compound `CCc1c2c(nc3ccc(O)cc13)-c1cc3c(c(=O)n1C2)COC(=O)[C@@]3(CC)OC(=O)CCCCn1cc(CCCC(=O)NCCCOCCOCCOCCCNC(=O)CCC(=O)N[C@H]2CNC(=O)C[C@@H](C(N)=O)NC(=O)[C@H](CC(C)C)NC(=O)[C@H](C)NC(=O)[C@H]([C@@H](C)O)NC(=O)[C@H](CCC(=O)O)NC(=O)[C@@H]3CCCN3C(=O)[C@H](C)NC(=O)[C@H](CCCCN)NC2=O)nn1` [SN38-linker A-MiniAp4 (Ia)] ({X1-Suc}-[Dap]KAPETALD-NH2; lactam 1-9), the IC50 in series [1] came to 0.0921 µM; in series [2], 0.0335 µM; in series [8] it was 0.00694 µM; in series [9], 0.744 µM. Moreover, the “symptoms including death or weight lost at the MTD” value in [3] was “survived and did not show immediate symptoms of distress or significant weight lost”. This compound also returned a maximum tolerated dose (MTD) at 14 days in series [4] of 200 mg/kg. The results for the half-life at 200 μM in [5], in series [7] and in [10] were 8 to 24 h, greater than 24 h and greater than 24 h, respectively. In addition, the recovery at 24 h, 200 μM in series [5] (24 h, read-out: % Recovery after 24 h in dog plasma) was 68.3%; in series [7] (24 h, read-out: % Recovery after 24 h in human plasma), 65.1%; in series [10] (24 h, read-out: % Recovery after 24 h in rat plasma), 61.2%. Also, the “solubility in water relative to the solubility in water described for SN38” value in series [6] (versus literature solubility of SN38 (Mol. Pharmaceutics, 2016, 13, 379-390)) is recorded as “more than 400 fold”. Besides, in series [6] (water, 25 mg dissolved in H2O, completely transparent solution), the solubility was greater than 5000 µg/mL. Moreover, the solubility at 2 hr in series [11] (37 °C, pH 7.4, aqueous buffer, read-out: Turbidity aqueous solubility, Estimated precipitation range, Lower bond) is 30 µM (≈ 54.8 µg/mL); in series [11] (37 °C, pH 7.4, aqueous buffer, read-out: Turbidity aqueous solubility, Estimated precipitation range, Upper bond) it was 100 µM (≈ 183 µg/mL); in series [11] (aqueous buffer, read-out: Turbidity aqueous solubility, Estimated precipitation range, Calculated mid-range), 65 µM (≈ 119 µg/mL). For the same compound, the “solubility problems in turbidimetric solubility test” value in [11] (up to 100 micromolar) was “No solubility problems”.

As for `CCc1c2c(nc3ccc(OC(=O)N4CCC(N5CCCCC5)CC4)cc13)-c1cc3c(c(=O)n1C2)COC(=O)[C@]3(O)CC` [Irinotecan], the half-maximal inhibitory concentration (IC50) was determined as 0.911 µM in series [1], 2.6 µM in series [2], 5.96 µM in series [8] (Rhabdomyosarcoma cell) and 9.75 µM in [9] (Glioma cell).

As for `CCc1c2c(nc3ccc(O)cc13)-c1cc3c(c(=O)n1C2)COC(=O)[C@]3(O)CC` [SN38, 7-ethyl-10-hydroxy-camptothecin], the IC50 in series [1] was 0.0103 µM; in series [2], 0.00108 µM; in series [8] (Rhabdomyosarcoma cell) it was 0.00157 µM; in series [9] (Glioma cell), 0.00404 µM.

Broadly, the IC50 is the concentration that inhibits the measured activity by half. In general, MTD refers to the highest dose tested that stayed within the study's limit of toxicity. High values mean better tolerability, low ones poorer tolerability. The term half-life denotes how long it takes for the measured level to halve. Read a low half-life as rapid decline. For orientation: solubility means the dissolved amount per volume that the medium holds.
